Laboratory results from patent US20250270301A1 (GEN2 NEUROSCIENCE, published 2025).
Where a chain is given by its changes, count along the chain named.

B1: #44_VH4VK4_H06-H02/pVL (antibody, V domains shown)
VH: QVQLQESGPGLVKPSETLSLTCTVSGIDLSSYAMAWVRQAPGKGLEWIGVIDAAGHTFYASWVKGRFTISKDTSKTTVDLQMTSLTAEDTATYFCARDRGDFDVWGQGTLVTVSS
VL: DIQMTQSPSSLSASVGDRVTITCQASQSVYDNYLAWYQQKPGQPPKLLIHAASNLASGVPSRFSGSGSGTEFTLTISSLQPDDFATYYCLGEFSCTTTDCNVFGGGTKVEIK
notes: also called H06-02/pVL; Clone VH4_H06_H02
B2: #44_VH4VK4_H16-H04/pVL (antibody, V domains shown)
VH: B1 VH with V50A, A53R, H56N, R99A, D101S, D103H, V104P
VL: B1 VL
notes: also called Clone VH4_H16_H04; #44_VH4_H16-H04
B3: #44_VH4VK4_H06-H01/pVL (antibody, V domains shown)
VH: B1 VH with R99V, D101S
VL: B1 VL
notes: also called H06-01/pVL; Clone VH4H_06_H01
B4: #44_VH4VK4_H06-H04/pVL (antibody, V domains shown)
VH: B1 VH with R99A, D101S, D103H, V104P
VL: B1 VL
notes: also called H06-04/pVL; Clone VH4_H06_H04
B5: #44_VH4_H07/L2 (antibody, V domains shown)
VH: B1 VH with V50A, H56N, R99S, D101A, V104P
VL: DIQMTQSPSSLSASVGDRVTITCQASQSVYDNYLAWYQQKPGQPPKLLIHAASNLASGVPSRFSGSGSGTEFTLTISSLQPDDFATYYCLGEFSCQDTDCNVFGGGTKVEIKR
notes: also called Clone VH4_H07/L2
B6: #44_VH4_H13/L2 (antibody, V domains shown)
VH: B1 VH with V50A, A53S, H56N, R99S, D101A, V104P
VL: B5 VL
notes: also called Clone VH4_H13/L2
B7: #44_VH4_H14/L2 (antibody, V domains shown)
VH: B1 VH with V50A, A53S, H56S, F67S, R99S, D101A, V104P
VL: B5 VL
notes: also called Clone VH4_H14/L2
B8: #44_VH4_H09/L2 (antibody, V domains shown)
VH: B1 VH with V50A, A54R, H56N, R99S, D101A, V104P
VL: B5 VL
notes: also called Clone VH4_H09/L2
B9: #44_VH4_H06/L2 (antibody, V domains shown)
VH: B1 VH with R99S, D101T, V104P
VL: B5 VL
notes: also called Clone VH4_H06/L2
B10: #44 VH3VK2 humanised hIgG1 (antibody, V domains shown)
VH: QVQLQESGPGLVKPSETLSLTCTVSGIDLSSYAMAWVRQAPGKGLEWIGCIDRRGGTFYASWVKGRFTISKTSTTVDLQMTSLTAEDTATYFCARDSGAFDPWGQGTLVTVSS
VL: B1 VL with D1Q, Q3V, S64K
notes: also called VH3Vκ2
B11: #44 VH1VK2 humanised hIgG1 (antibody, V domains shown)
VH: QSVQESGGGLVKPSETLSLTCTVSGIDLSSYAMAWVRQAPGKGLEWIGCIDRRGGTFYASWVKGRFTISKTSTTVDLKMTSLTAEDTATYFCARDSGAFDPWGQGTLVTVSS
VL: B1 VL with D1Q, Q3V, S64K
notes: also called VH1Vκ2
B12: #44 VH1VK4 humanised hIgG1 (antibody, V domains shown)
VH: B11 VH
VL: B1 VL
notes: also called VH1Vκ4
B13: #44 VH5VK3 humanised hIgG1 (antibody, V domains shown)
VH: QVQLQESGPGLVKPSETLSLTCTVSGIDLSSYAMAWVRQAPGKGLEWIGCIDRRGGTFYASWVKGRFTISRDNSKNTLDLQMTSLTAEDTATYYCARDSGAFDPWGQGTLVTVSS
VL: B1 VL with S64K
notes: also called VH5Vκ3
B14: #44 VH6VK2 humanised hIgG1 (antibody, V domains shown)
VH: B13 VH with A35S, I48V, G49S
VL: B1 VL with D1Q, Q3V, S64K
notes: also called VH6Vκ2
B15: #44 VH2VK1 humanised hIgG1 (antibody, V domains shown)
VH: B11 VH with G8P, K78Q
VL: B1 VL with D1Q, Q3V, G58R, S64K, P81C, K108E, E110V
notes: also called VH2Vκ1
B16: #44 VH1VK3 humanised hIgG1 (antibody, V domains shown)
VH: B11 VH
VL: B1 VL with S64K
notes: also called VH1Vκ3
B17: #44 VH5VK1 humanised hIgG1 (antibody, V domains shown)
VH: B13 VH
VL: B1 VL with D1Q, Q3V, G58R, S64K, P81C, K108E, E110V
notes: also called VH5Vκ1
B18: #44 VH6VK3 humanised hIgG1 (antibody, V domains shown)
VH: B13 VH with A35S, I48V, G49S
VL: B1 VL with S64K
notes: also called VH6Vκ3
B19: #44 VH6VK4 humanised hIgG1 (antibody, V domains shown)
VH: B13 VH with A35S, I48V, G49S
VL: B1 VL
notes: also called VH6Vκ4
B20: #44 VH4VK1 humanised hIgG1 (antibody, V domains shown)
VH: B13 VH with R71K, N73T, N76T, L78V, Y94F
VL: B1 VL with D1Q, Q3V, G58R, S64K, P81C, K108E, E110V
notes: also called VH4Vκ1
B21: #44 VH5VK4 humanised hIgG1 (antibody, V domains shown)
VH: B13 VH
VL: B1 VL
notes: also called VH5Vκ4
B22: #44 VH3VK1 humanised hIgG1 (antibody, V domains shown)
VH: B10 VH
VL: B1 VL with D1Q, Q3V, G58R, S64K, P81C, K108E, E110V
notes: also called VH3Vκ1
B23: #44 VH5VK2 humanised hIgG1 (antibody, V domains shown)
VH: B13 VH
VL: B1 VL with D1Q, Q3V, S64K
notes: also called VH5Vκ2
B24: #44 VH1VK1 humanised hIgG1 (antibody, V domains shown)
VH: B11 VH
VL: B1 VL with D1Q, Q3V, G58R, S64K, P81C, K108E, E110V
notes: also called VH1Vκ1

Biological target: T1, full length recombinant human 2N4R tau (human, UniProt P10636 1-758)
T1 construct: bought from rPeptide; pHrodo Red maleimide-labelled where it stands in uptake assays; also called tau1-441; full length tau
Assay: SPR SCK, IgG on Protein A, tau in flow

T1 sequence (P10636 other isoform, or with tags, fused parts or gaps limits assumed): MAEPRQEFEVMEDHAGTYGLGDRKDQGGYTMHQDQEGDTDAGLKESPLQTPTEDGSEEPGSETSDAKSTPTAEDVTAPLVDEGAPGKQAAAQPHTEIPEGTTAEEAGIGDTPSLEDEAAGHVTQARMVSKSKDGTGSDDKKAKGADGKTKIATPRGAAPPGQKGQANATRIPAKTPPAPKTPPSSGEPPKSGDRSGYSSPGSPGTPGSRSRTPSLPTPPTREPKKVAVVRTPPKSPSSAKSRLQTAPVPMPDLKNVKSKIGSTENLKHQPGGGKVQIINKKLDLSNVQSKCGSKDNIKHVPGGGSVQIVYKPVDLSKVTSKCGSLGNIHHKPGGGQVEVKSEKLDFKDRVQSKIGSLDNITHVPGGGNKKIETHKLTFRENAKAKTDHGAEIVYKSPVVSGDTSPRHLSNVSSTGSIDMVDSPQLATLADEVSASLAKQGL

Row | Fold change (KD, to pVH/pVL) | Kd [nM] | koff [s⁻¹] | kon [M⁻¹ s⁻¹] | Binder
1 | 7.73 | 0.851 | 0.00489 | 5.75e+06 | B1
2 | 7.88 | 0.835 | 0.00417 | 4.99e+06 | B2
3 | 1.71 | 3.85 | 0.0121 | 3.15e+06 | B3
4 | 9.11 | 0.722 | 0.00443 | 6.14e+06 | B4
5 | 0.26 | 24.9 | 0.0124 | 497000 | B5
6 | 0.28 | 23.5 | 0.00844 | 358000 | B6
7 | 0.52 | 12.6 | 0.0161 | 1.28e+06 | B7
8 | 0.45 | 14.6 | 0.0106 | 728000 | B8
9 | 3.54 | 1.86 | 0.00841 | 4.52e+06 | B9

Biological target: T2, Bovine serum albumin (bovine, UniProt P02769 25-607)
T2 construct: also called BSA
Assay: ELISA on 1% BSA, HEK supernatant, anti-human IgG-HRP, n=1
Protocol: FIG. 7. A panel of humanised anti-tau IgG bind to full length recombinant 2N4R tau in an ELISA format. Supernatants from HEK cells transiently transfected with each IgG clone were tested at 1:100 for binding to full length recombinant 2N4R tau (solid bars). […] Binding of anti-tau hIgG1 was detected using an HRP-conjugated anti-human secondary antibody and data are shown from a representative experiment (n=1 replicate).
Antigen was removed from wells and the plates were then blocked for 1 hour at RT with 5% dried milk in 1×TBS. Blocking solution was removed, HEK293 cell supernatant (1:100 in 1% BSA/1×TBS) was added to relevant wells, and plates were incubated for 1 hour at RT with gentle shaking. Plates were then washed four times with TBS/0.1% Tween (TBST). Goat anti-human IgG-HRP antibody (Thermo Fisher Scientific, Waltham, MA, USA), diluted 1:2000 in 5% milk/TBS, was added to each well and plates were incubated for 1 hour at RT with gentle shaking before being washed four times with TBST. 3,3′,5,5′-tetramethylbenzidine (TMB) ELISA solution was added to each well and plates were incubated for 15 mins at RT. An equal volume of 1 M sulfuric acid was added to each well and OD was measured at 450 nm.

T2 sequence (P02769 25-607 limits assumed): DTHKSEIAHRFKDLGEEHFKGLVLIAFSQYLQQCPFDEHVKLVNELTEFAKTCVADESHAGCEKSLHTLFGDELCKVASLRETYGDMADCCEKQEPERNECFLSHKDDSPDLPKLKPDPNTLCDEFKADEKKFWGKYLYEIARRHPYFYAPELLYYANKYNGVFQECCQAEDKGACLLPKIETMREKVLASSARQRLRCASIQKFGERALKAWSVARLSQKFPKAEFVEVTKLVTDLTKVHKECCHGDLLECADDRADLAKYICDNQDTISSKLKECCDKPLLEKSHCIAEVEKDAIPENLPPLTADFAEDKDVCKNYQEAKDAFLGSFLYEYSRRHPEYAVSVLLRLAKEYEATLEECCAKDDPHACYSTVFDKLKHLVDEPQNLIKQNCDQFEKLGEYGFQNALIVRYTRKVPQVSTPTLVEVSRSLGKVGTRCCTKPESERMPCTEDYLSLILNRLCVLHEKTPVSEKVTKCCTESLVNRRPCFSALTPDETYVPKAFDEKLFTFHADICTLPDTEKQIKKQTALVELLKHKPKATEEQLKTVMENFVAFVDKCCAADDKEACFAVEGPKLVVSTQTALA

Row | binding result | Binder
10 | no binding (tested: supernatant 1:100) | B10
11 | no binding (tested: supernatant 1:100) | B11
12 | no binding (tested: supernatant 1:100) | B12
13 | no binding (tested: supernatant 1:100) | B13
14 | no binding (tested: supernatant 1:100) | B14
15 | no binding (tested: supernatant 1:100) | B15
16 | no binding (tested: supernatant 1:100) | B16
17 | no binding (tested: supernatant 1:100) | B17
18 | no binding (tested: supernatant 1:100) | B18
19 | no binding (tested: supernatant 1:100) | B19
20 | no binding (tested: supernatant 1:100) | B20
21 | no binding (tested: supernatant 1:100) | B21
22 | no binding (tested: supernatant 1:100) | B22
23 | no binding (tested: supernatant 1:100) | B23
24 | no binding (tested: supernatant 1:100) | B24

Biological target: T1, full length recombinant human 2N4R tau
Assay: SPR SCK, IgG on Protein A, tau in flow
Remark: another data set of the same source
Protocol: 21.5 Assessment of antibody binding to tau (Biacore SCK analysis): Binding of anti-tau hIgG1 to full length recombinant 2N4R tau (Rpeptide; SEQ ID NO: 2) was assessed using the Biacore T200 (GE Healthcare, Chicago, IL, USA) running Biacore T200 Evaluation Software V2.0.1. hIgG1 were immobilised on a Protein A capture sensor chip in running buffer (HBS-EP+ buffer containing 1 mg/mL BSA) at 25° C., captured to ˜50 RU at 10 μL/min. For single-cycle kinetics experiments, recombinant 2N4R tau was flowed at concentrations ranging from 1.25 nM to 10 nM (2-fold dilutions) with an association time of 60 s and a dissociation time of 200 s. Curves were compared to a reference cell that was mock immobilized (no antibody present).

Row | Kd [nM] | Relative KD (to VH0VK0) | koff [s⁻¹] | kon [M⁻¹ s⁻¹] | Binder
25 | 7.64 | 1.99 | 0.0356 | 4.66e+06 | B10
26 | 4.26 | 1.11 | 0.0232 | 5.43e+06 | B11
27 | 4.15 | 1.08 | 0.0208 | 5.01e+06 | B12
28 | 14.2 | 3.71 | 0.0406 | 2.86e+06 | B13
29 | 7.94 | 2.07 | 0.021 | 2.64e+06 | B15
30 | 5 | 1.31 | 0.0129 | 2.58e+06 | B16
31 | 8.31 | 2.17 | 0.187 | 2.25e+07 | B17
32 | 6.81 | 1.78 | 0.03 | 4.4e+06 | B20
33 | 9.63 | 2.51 | 0.0684 | 7.11e+06 | B21
34 | 4.35 | 1.14 | 0.0121 | 2.79e+06 | B22
35 | 12.6 | 3.29 | – | – | B23
36 | 3.16 | 0.83 | 0.0232 | 7.35e+06 | B24
